Reference: patent US9469685 (UNIVERSITY OF CHICAGO, dated 2016)

Molecular target: HA of the 1918 pandemic strain, A/Brevig Mission/1/1918 (H1N1) (influenza A virus A/Brevig …, UniProt Q9WFX3 18-529)
Experiment: ELISA (FIG. 3B, FIG. 8A)

Sequence of HA of the 1918 pandemic strain, A/Brevig Mission/1/1918 (H1N1) (Q9WFX3 18-529 limits assumed): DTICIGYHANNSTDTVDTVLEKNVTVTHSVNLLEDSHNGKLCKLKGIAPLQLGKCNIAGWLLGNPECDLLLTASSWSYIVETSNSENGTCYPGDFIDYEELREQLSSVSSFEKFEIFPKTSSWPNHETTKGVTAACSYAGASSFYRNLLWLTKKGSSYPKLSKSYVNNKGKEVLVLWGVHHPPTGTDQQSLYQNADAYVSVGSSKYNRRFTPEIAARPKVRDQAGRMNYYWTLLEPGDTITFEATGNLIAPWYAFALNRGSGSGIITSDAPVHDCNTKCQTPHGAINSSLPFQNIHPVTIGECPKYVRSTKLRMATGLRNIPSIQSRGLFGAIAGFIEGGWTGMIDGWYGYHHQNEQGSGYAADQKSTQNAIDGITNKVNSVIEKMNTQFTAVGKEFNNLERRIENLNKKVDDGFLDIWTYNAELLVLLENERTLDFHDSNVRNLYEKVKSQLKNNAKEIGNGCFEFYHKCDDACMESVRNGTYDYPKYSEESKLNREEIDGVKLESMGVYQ

B1: 70-5B03 (antibody, V domains shown)
VH: QVQLVQSGAEVKKPGSSVKVSCKASGGTFRNFAVSWVRQAPGQGPEWMGGIIAIFGTAKYAQKFQGRVTISADESTRIVQMELSSLRSDDTAIYYCASSSGSYYGDYFDYWGQGTLVTVSS
VL: EIVMTQSPATLSVSPGERATLSCRASQSVSSNLAWYQQTPGQAPRLLIYAASSRATGIPARFSGSGSGTEFTLSISSLQPEDFAVYYCQQYNNWPRTFGQGTKVEIK
B1: binds.
